Measurements from patent US20200371101A1.
Like-named read-outs stand apart in the source and are kept apart here. Values belong to the binder of their own block, whether it stands above or below them. Bridge positions count the residues as written; N and C are the ends. Square brackets hold non-standard residues; d marks the D form. Ends that are not written are not given here. Az4 = not defined here

Assays:
[1] = target: His-tagged IDO1 human recombinant protein (71182, BPS Biosciences) (human) (UniProt P14902); experiment: sandwich ELISA: biotinylated macrocycle on NeutrAvidin plate, His-tagged IDO1 titrated, anti-6XHis-AP detection
[2] = target: His-tagged IDO1 human recombinant protein (71182, BPS Biosciences) (human) (UniProt P14902); experiment: ELISA: biotin-PEG3 macrocycle on NeutrAvidin plate, His-tagged human IDO1 titrated, AP-conjugated anti-6XHis antibody, fluorescence
[3] = target: His-tagged IDO1 human recombinant protein (71182, BPS Biosciences) (human) (UniProt P14902); experiment: ELISA binding assay; deprotected small molecule (hydroxyamidine free)
[4] = target: His-tagged IDO1 human recombinant protein (71182, BPS Biosciences) (human) (UniProt P14902); experiment: cell-based or functional assay
[5] = target: His-tagged IDO1 human recombinant protein (71182, BPS Biosciences) (human) (UniProt P14902); experiment: cell-based or functional assay; remark: listed apart in the source
[6] = target: His-tagged IDO1 human recombinant protein (71182, BPS Biosciences) (human) (UniProt P14902); experiment: binding affinity, assay not named
[7] = target: His-tagged IDO1 human recombinant protein (71182, BPS Biosciences) (human) (UniProt P14902); experiment: ELISA binding assay; small molecule masked as its oxadiazolone (protected)
[8] = target: His-tagged IDO1 human recombinant protein (71182, BPS Biosciences) (human) (UniProt P14902); experiment: ELISA binding assay
[9] = target: His-tagged IDO1 human recombinant protein (71182, BPS Biosciences) (human) (UniProt P14902); experiment: ELISA
[10] = target: His-tagged IDO1 human recombinant protein (71182, BPS Biosciences) (human) (UniProt P14902); experiment: binding analysis, method not named

Sequence of His-tagged IDO1 human recombinant protein (71182, BPS Biosciences) (human) (P14902 2-403 limits assumed): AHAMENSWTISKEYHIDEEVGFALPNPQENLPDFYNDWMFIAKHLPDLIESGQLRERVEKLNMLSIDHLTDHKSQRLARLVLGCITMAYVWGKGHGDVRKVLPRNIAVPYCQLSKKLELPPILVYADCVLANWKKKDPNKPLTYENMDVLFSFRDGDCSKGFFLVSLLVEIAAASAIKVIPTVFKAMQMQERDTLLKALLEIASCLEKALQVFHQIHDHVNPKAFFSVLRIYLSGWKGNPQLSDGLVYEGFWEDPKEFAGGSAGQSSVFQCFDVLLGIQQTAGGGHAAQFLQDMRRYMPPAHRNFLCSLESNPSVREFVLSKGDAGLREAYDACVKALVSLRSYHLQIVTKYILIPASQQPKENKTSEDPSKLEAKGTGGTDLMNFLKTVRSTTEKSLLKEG

- EC50 [1]: 125 nM
B1: biotin-PEG3-Cy(rffyl) (peptide)
peptide: RFFYL
modifications: all D-amino acids; ring closed by triazole between flanking N-terminal Pra and C-terminal Az4; N-terminal biotin-PEG3

- EC50 [2]: 65 nM
B2: Biotin-PEG3-Cy(wyaay) (peptide)
peptide: WYAAY
modifications: all D-amino acids; ring closed by triazole between flanking N-terminal Pra and C-terminal Az4; N-terminal biotin-PEG3

- EC50 [3]: 34 nM
- IC50, IDO1 inhibition assay [4]: 350 nM
- Inhibition Recombinant IDO1 IC50 [4]: 407 nM
- IC50, IDO1 inhibition assay [5]: 407 nM
- EC50 [6]: 36 nM
B3: Deprotected-Inh-PEG8-wyvay (peptide)
peptide: [dW][dY][dV][dA][dY]-Az4
modifications: triazole N-C; not fully specified (N-terminus); reading uncertain; also: small molecule Inh joined via PEG8 linker, attachment point not given here

- EC50 [2]: 98 nM
B4: Biotin-PEG3-Cy(waray) (peptide)
peptide: WARAY
modifications: all D-amino acids; ring closed by triazole between flanking N-terminal Pra and C-terminal Az4; N-terminal biotin-PEG3

- EC50 [2]: 103 nM
B5: Biotin-PEG3-Cy(ayray) (peptide)
peptide: AYRAY
modifications: all D-amino acids; ring closed by triazole between flanking N-terminal Pra and C-terminal Az4; N-terminal biotin-PEG3

- IC50, IDO1 inhibition assay [5]: > 10000 nM
- EC50 [7]: 92 nM
- fold decrease in binding affinity (EC50) against the deprotected heterobiligand [8]: 3 fold
B6: Protected-Inh-PEG8-wyvay (peptide)
peptide: [dW][dY][dV][dA][dY]-Az4
modifications: triazole N-C; not fully specified (N-terminus); printed as Protected-Inh-PEG8-wyvay; reading uncertain; also: Inh hydroxyamidine masked as oxadiazolone

- EC50 [2]: 79 nM
B7: Biotin-PEG3-Cy(wray) (peptide)
peptide: WRAY
modifications: all D-amino acids; ring closed by triazole between flanking N-terminal Pra and C-terminal Az4; N-terminal biotin-PEG3

- EC50 [9]: 25 nM
- EC50 [2]: 25 nM
- EC50 [1]: 25 nM
B8: biotin-PEG3-Cy(wyray) (peptide)
peptide: WYRAY
modifications: all D-amino acids; ring closed by triazole between flanking N-terminal Pra and C-terminal Az4; N-terminal biotin-PEG3

- EC50 [2]: 18 nM
B9: Biotin-PEG3-Cy(wyry) (peptide)
peptide: WYRY
modifications: all D-amino acids; ring closed by triazole between flanking N-terminal Pra and C-terminal Az4; N-terminal biotin-PEG3

- EC50 [2]: 113 nM
B10: Biotin-PEG3-Cy(yray) (peptide)
peptide: YRAY
modifications: all D-amino acids; ring closed by triazole between flanking N-terminal Pra and C-terminal Az4; N-terminal biotin-PEG3

- EC50 [10]: 45 nM
- EC50 [9]: 45 nM
B11: wyvay macrocycle (peptide)
peptide: [dW][dY][dV][dA][dY]
modifications: triazole (positions not given here); also: ring closed by flanking Pra and Az4, not in chain
